Data published in patent US20170305994A1 (Novo Nordisk, published 2017).

Key:
Assay in all cases: cell-based or functional assay
human DR3 L45V = biological target: T1, human DR3 L45V (human, UniProt Q93038 25-417)
T1 sequence: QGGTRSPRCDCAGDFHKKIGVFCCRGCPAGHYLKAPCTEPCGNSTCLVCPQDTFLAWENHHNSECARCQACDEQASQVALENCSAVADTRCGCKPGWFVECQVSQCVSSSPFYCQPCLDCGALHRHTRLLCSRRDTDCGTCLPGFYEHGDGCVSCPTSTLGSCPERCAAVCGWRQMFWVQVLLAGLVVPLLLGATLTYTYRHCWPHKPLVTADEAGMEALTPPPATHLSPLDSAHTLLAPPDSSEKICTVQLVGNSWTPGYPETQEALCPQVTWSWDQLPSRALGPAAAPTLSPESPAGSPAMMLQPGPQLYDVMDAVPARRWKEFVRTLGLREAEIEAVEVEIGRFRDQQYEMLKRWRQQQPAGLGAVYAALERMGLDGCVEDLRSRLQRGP

human DR3 I43N = biological target: T2, human DR3 I43N (human, UniProt Q93038 25-417)
T2 sequence: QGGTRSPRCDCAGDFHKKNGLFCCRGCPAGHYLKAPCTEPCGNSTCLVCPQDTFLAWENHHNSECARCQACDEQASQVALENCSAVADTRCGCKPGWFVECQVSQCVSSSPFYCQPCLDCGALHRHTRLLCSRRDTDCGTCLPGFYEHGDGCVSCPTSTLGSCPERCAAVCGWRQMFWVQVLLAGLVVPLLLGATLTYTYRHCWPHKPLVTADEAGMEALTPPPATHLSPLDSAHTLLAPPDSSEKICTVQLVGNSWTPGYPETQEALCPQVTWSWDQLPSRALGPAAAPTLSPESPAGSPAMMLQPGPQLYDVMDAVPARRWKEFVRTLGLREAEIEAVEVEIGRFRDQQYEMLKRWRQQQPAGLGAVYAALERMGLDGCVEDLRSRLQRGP

human DR3 R29Q = biological target: T3, human DR3 R29Q (human, UniProt Q93038 25-417)
T3 sequence: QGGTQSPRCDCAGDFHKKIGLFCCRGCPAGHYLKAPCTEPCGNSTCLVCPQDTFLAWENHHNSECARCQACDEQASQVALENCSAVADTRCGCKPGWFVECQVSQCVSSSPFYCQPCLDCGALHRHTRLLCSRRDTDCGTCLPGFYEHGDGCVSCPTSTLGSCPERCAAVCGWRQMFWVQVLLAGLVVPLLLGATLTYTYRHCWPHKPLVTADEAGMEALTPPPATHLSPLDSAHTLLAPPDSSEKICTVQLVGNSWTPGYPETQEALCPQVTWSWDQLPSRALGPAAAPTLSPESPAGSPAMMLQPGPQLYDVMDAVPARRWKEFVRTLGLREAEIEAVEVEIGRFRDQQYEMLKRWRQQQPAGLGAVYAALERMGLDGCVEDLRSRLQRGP

human DR3 I43N/L45V = biological target: T4, human DR3 I43N/L45V (human, UniProt Q93038 25-417)
T4 chain: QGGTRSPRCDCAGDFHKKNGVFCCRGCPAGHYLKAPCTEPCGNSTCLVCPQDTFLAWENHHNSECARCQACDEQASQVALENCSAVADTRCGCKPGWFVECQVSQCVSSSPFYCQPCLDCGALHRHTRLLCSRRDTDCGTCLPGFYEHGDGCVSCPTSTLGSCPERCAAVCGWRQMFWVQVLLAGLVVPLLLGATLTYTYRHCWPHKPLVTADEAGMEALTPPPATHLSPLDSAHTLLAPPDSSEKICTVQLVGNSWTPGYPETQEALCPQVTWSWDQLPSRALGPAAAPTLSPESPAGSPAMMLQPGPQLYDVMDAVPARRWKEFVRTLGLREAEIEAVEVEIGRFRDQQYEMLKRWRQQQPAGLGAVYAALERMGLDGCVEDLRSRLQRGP

[1] = biological target: T5, cynomolgus DR3 (on HEK293 reporter cells) (cynomolgus, UniProt A0A2K5WJ09 98-464)
T5 sequence: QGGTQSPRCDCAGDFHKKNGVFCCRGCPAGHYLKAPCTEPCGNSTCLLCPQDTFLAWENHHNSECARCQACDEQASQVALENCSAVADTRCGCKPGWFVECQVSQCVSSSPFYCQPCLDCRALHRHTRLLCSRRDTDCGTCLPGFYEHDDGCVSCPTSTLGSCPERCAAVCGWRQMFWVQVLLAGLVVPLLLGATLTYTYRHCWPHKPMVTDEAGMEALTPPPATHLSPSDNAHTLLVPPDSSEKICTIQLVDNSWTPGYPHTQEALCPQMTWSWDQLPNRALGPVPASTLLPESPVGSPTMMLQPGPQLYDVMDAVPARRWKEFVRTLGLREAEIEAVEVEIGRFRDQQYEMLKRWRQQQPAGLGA

[2] = biological target: T6, human DR3 (full length, on cells) (human, UniProt Q93038 25-417)
T6 sequence: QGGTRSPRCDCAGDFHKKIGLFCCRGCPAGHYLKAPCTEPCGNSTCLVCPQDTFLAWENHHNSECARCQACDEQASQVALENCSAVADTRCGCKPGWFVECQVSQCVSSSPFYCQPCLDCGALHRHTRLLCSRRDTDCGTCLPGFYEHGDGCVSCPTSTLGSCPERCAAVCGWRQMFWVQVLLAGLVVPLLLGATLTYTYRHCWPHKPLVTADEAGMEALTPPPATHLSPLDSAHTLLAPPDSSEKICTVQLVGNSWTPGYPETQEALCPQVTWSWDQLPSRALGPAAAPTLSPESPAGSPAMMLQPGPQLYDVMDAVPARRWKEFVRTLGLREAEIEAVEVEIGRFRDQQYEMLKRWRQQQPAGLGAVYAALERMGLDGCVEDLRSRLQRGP

[3] = biological target: T7, marmoset DR3 (transiently expressed on HEK293 cells) (marmoset, UniProt U3ENN5 27-418)
T7 sequence: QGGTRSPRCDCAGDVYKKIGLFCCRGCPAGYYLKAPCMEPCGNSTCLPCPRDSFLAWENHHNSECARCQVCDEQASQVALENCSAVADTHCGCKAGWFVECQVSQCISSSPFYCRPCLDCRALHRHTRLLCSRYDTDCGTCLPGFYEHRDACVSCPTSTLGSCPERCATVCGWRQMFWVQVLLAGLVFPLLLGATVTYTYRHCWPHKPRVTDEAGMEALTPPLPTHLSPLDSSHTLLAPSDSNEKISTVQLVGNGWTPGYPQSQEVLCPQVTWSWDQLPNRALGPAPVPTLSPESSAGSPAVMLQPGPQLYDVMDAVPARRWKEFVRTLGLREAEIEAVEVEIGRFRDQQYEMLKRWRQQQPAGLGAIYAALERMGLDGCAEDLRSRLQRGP

B1: 0228 (humanized Fab of 27F44, IgG4, hz0072VH S49A / hz0072VL) (Fab, V domains shown)
VH: EVQLVESGGGLVQPGGSLRLSCAASGFTFSNYDMSWVRQATGKGLEWVAAFSSDGYTFYPGSVKGRFTISRENAKNSLYLQMNSLRAGDTAVYYCARHADYANYPVMDYWGQGTLVTVSS
VL: DIQMTQSPSSLSASVGDRVTITCRASKSVSTSGYSYMHWYQQKPGKAPKLLIYLASNLESGVPSRFSGSGSGTDFTLTISSLQPEDFATYYCQHSRELPLTFGGGTKVEIKR
notes: IgG4-Cys, hz (humanized IgG4 Fab with the hinge cysteine kept)
IC50 of Fab upon stimulation by TL1A, transient reporter (human DR3 L45V): 2 nM
IC50 of Fab upon stimulation by TL1A, transient reporter (human DR3 I43N): 68 nM
IC50 of Fab upon stimulation by TL1A, transient reporter (human DR3 R29Q): 0.372 nM
IC50 of Fab upon stimulation by TL1A, transient reporter (human DR3 I43N/L45V): 149 nM
IC50 at 40 ng/ml TL1A, transient reporter HEK293 [1]: 73 nM
IC50 at 40 ng/ml TL1A, transient reporter HEK293 [2]: 0.355 nM
IC50 at 40 ng/ml TL1A, transient reporter HEK293 [3]: 0.549 nM
